Laboratory results as given in paper PMC9589210.

Key:
[1] = target: microtubules polymerised from bovine brain tubulin (bovine (endogenous in brain)) (UniProt Q6B856); assay: TIRF microscopy (single-molecule imaging); 750 nM unlabeled Tau spiked with 300 pM Alexa-647-labeled Tau on dynamic microtubules (5 μM tubulin, 10% Alexa-488) grown from surface-held GMPCPP seeds, TIRF assay buffer, 37 °C, 10 frames/s
[2] = target: microtubules polymerised from bovine brain tubulin (bovine (endogenous in brain)) (UniProt Q6B856); assay: TIRF microscopy (fluorescence intensity of labeled Tau on microtubules); occupancy: 750 nM Alexa-647 Tau on dynamic microtubules grown from surface-held GMPCPP seeds with 5 μM tubulin, 1 mM GTP, TIRF assay buffer (BRB80, 10 mM DTT, oxygen scavenger), 37 °C; normalized average fluorescence intensity, seeds excluded
[3] = target: microtubules polymerised from bovine brain tubulin (bovine (endogenous in brain)) (UniProt Q6B856)
[4] = target: WT-Tau, 3RS isoform, Alexa 488-labeled (construct for FCS) (UniProt P10636); assay: fluorescence correlation spectroscopy (FCS); ~20 nM Alexa 488-labeled Tau, tubulin titrated 0.5-10 μM, nonpolymerizing conditions, BRB80 (80 mM Pipes, 1 mM EGTA, 1 mM MgCl2, pH 6.9), 20 °C, 5 min incubation; diffusion times normalised to that without tubulin and fit to a binding model
[5] = target: R5L-Tau, 3RS isoform, Alexa 488-labeled (construct for FCS) (UniProt P10636); assay: as above

| dwell time of diffusive events [1] [s] | dwell time of static events [1] [s] | percent static binding [1] [%] | relative normalized fluorescence intensity of Tau on dynamic microtubules [2] | microtubule growth rate at the minus end, dynamic microtubules with 750 nM unlabeled Tau (TIRF) [3] [μm/min] | microtubule growth rate at the plus end, dynamic microtubules with 750 nM unlabeled Tau (TIRF) [3] [μm/min] | microtubule shrinkage rate at the minus end, dynamic microtubules with 750 nM unlabeled Tau (TIRF) [3] [μm/min] | microtubule shrinkage rate at the plus end, dynamic microtubules with 750 nM unlabeled Tau (TIRF) [3] [μm/min] | increase of the normalized diffusion time of Tau at saturation [4] [%] | increase of the normalized diffusion time of Tau at saturation [5] [%] | Substance |
| --- | --- | --- | --- | --- | --- | --- | --- | --- | --- | --- |
| 0.5 | 0.7 | 18 | 0.68 | 0.41 | 1.04 | 10.4 | 11 |  |  | R5L-Tau, 3RS isoform (construct for TIRF microscopy), Alexa 647-labeled (from UniProt P10636-2 1-352) (natural protein) |
| 0.6 | 0.7 | 43 | 1 | 0.4 | 1 | 7.12 | 7.55 |  |  | WT-Tau, 3RS isoform (construct for TIRF microscopy), Alexa 647-labeled (from UniProt P10636-2 1-352) (natural protein) |
|  |  |  |  |  |  |  |  | 50 | 50 | tubulin (free, soluble), purified from bovine brain (from UniProt Q6B856 1-445) (complex) |
